# Experimental data: article PMC10524599, “Sensory deficit screen identifies nsf mutation that differentially affects SNARE recycling and quality control” (Cell reports, 2023)
# B1: I209N NSF (N-ethylmaleimide-sensitive factor, C. griseus ortholog with the I209N mutation) (enzyme)
# chain: MAGRSMQAARCPTDELSLSNCAVVSEKDYQSGQHVIVRTSPNHKYIFTLRTHPSVVPGSVAFSLPQRKWAGLSIGQEIEVALYSFDKAKQCIGTMTIEIDFLQKKNIDSNPYDTDKMAAEFIQQFNNQAFSVGQQLVFSFNDKLFGLLVKDIEAMDPSILKGEPASGKRQKIEVGLVVGNSQVAFEKAENSSLNLIGKAKTKENRQSINNPDWNFEKMGIGGLDKEFSDIFRRAFASRVFPPEIVEQMGCKHVKGILLYGPPGCGKTLLARQIGKMLNAREPKVVNGPEILNKYVGESEANIRKLFADAEEEQRRLGANSGLHIIIFDEIDAICKQRGSMAGSTGVHDTVVNQLLSKIDGVEQLNNILVIGMTNRPDLIDEALLRPGRLEVKMEIGLPDEKGRLQILHIHTARMRGHQLLSADVDIKELAVETKNFSGAELEGLVRAAQSTAMNRHIKASTKVEVDMEKAESLQVTRGDFLASLENDIKPAFGTNQEDYASYIMNGIIKWGDPVTRVLDDGELLVQQTKNSDRTPLVSVLLEGPPHSGKTALAAKIAEESNFPFIKICSPDKMIGFSETAKCQAMKKIFDDAYKSQLSCVVVDDIERLLDYVPIGPRFSNLVLQALLVLLKKAPPQGRKLLIIGTTSRKDVLQEMEMLNAFSTTIHVPNIATGEQLLEALELLGNFKDKERTTIAQQVKGKKVWIGIKKLLMLIEMSLQMDPEYRVRKFLALLREEGASPLDFD
# notes: legend gives 82.8 kDa monomeric, 496.8 kDa hexameric; also called NSF I209N; I209N NSF protein; source: E. coli BL21(DE3)-RIL, purified (Nickel-NTA, SEC; monomerized without ATP, reassembled by SEC with 1 mM ATP)
# Target: the molecule itself
# Experiment: SEC; NSF alone, reassembled to the hexamer by a final SEC run with buffer containing 1 mM ATP
protein,measurement,value
B1,stoichiometry N,6
